# Results reported in US20250304700A1, “ANTI-BLOOD DENDRITIC CELL ANTIGEN 2 ANTIBODIES AND USES THEREOF” (Biogen MA Inc., priority 2012, published 2025).
# Tests used:
# human BDCA2 ectodomain = biological target: T1, human BDCA2 ectodomain (Homo sapiens, UniProt Q8WTT0); test: Octet binding of mAbs on anti-human Fc tips to monomeric huBDCA2
# T1 construct: huBDCA2 ectodomain: residues 257-425 above (underlined); murine IgG2a Fc (with G4S linker) (N, cleaved yes); made in house
# T1 sequence (Q8WTT0 45-213): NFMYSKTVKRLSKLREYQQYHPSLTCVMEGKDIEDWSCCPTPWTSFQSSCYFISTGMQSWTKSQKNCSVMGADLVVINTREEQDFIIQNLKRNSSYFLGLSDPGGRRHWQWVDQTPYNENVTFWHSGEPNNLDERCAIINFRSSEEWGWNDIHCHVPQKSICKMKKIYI
# Description: Site-directed mutagenesis was performed using Agilent's QuikChange II mutagenesis kit following the manufacturer's recommended protocol. The C95S variant was constructed using the mutagenic primer 5′ GCAACCTATTACTGTCAACAAAGTAATGAGGATCCTCGGAC 3′ (SEQ ID NO: 38) and its reverse complement, which introduced a new HincII site, producing plasmid pEAG2678. The C95T variant was constructed using the mutagenic primer 5′ CAACCTATTACTGTCAGCAAACTAATGAAGATCCTCGGACGTTCG 3′ (SEQ ID NO: 39) and its reverse complement, which removed a BamHI site, producing plasmid pEAG2679. Mutated plasmids were identified by screening for the introduced restriction site changes. The full-length light chain cDNA sequences in the resultant plasmids were confirmed by DNA sequencing. Wildtype ch24F4 and the C95S and C95T variant mAbs were expressed transiently in 293E cells by co-transfection of pYL672 and pYL671, pEAG2678 or pEAG2679. Conditioned medium was harvested at 2 days post-transfection. Titers (assayed by Octet on anti-human Fc tips) of both variants were similar to that of wildtype ch24F4, and Western blots of nonreducing SDS-PAGE indicated no gross aggregation or obvious clipping relative to wildtype ch24F4 mAb. […] Conditioned medium containing ch24F4 and the C95 variant mAbs was assayed by Octet for binding to human BDCA2 ectodomain. Antibodies from conditioned medium from transiently transfected cells were bound to anti-human Fc tips, then monomeric huBDCA2 was flowed over the Octet tips, to examine binding and dissociation.
# Conditioned medium containing ch24F4 and all hu24F4 variant mAbs was assayed by Octet for binding to human BDCA2 ectodomain. The monomeric huBDCA2 ectodomain was prepared by proteolytic cleavage from the purified muIgG2a Fc-huBDCA2 fusion protein (relevant plasmid: pEAG2423). Antibodies from conditioned medium from transiently transfected cells were bound to anti-human Fc tips, and then monomeric huBDCA2 was flowed over the Octet tips, to examine binding and dissociation.
# To explore the possibility of enhancing hu24F4 affinity by substitution at the position of the 24F4 version L1 CDR L3 unpaired cysteine (C95S in hu24F4 light chain expression vector pYL740), a number of version L1 variants were constructed by site-directed mutagenesis. Backmutation to the unpaired cysteine, i.e., S95C, was constructed by site-directed mutagenesis producing plasmid pYL749. Variants S95T, S95A, and S95V were constructed by site-directed mutagenesis producing plasmids pYL750, pYL751, and pYL752, respectively. The full-length light chain cDNA sequences in the resultant plasmids were confirmed by DNA sequencing. C95 variant hu24F4 mAbs were expressed transiently in 293E cells by co-transfection of hu24F4 H4 heavy chain pYL746 or hu24F4 H5 heavy chain pYL747 with hu24F4 L1 variant light chains C95S pYL740, S95C pYL749, S95T pYL750, S95A pYL751 or S95V pYL752 plasmids. Conditioned medium was harvested at 2 days post-transfection. Titers (assayed by Octet on anti-human Fc tips) of all variants were similar, and Western blots of nonreducing SDS-PAGE indicated no gross aggregation or obvious clipping. Conditioned medium containing the C95 variant mAbs was assayed by Octet for binding to human BDCA2 ectodomain. Antibodies from conditioned medium from transiently transfected cells were bound to anti-human Fc tips, then monomeric huBDCA2 was flowed over the Octet tips, to examine binding and dissociation. C95A variants had the slowest off-rates.
# surface rat Clec4b2 = test: Direct FACS binding to surface rat Clec4b2; conditions: 293E cells co-transfected with rat Clec4b2/FcεRIγ
# Chain of surface rat Clec4b2 (as listed by the source): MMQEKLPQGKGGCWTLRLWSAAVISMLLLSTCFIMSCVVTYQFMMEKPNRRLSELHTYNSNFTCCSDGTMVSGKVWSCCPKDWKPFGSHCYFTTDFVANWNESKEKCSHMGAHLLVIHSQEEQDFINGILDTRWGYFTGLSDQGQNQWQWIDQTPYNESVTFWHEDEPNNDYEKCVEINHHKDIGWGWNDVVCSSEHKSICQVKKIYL
# Chain of surface rat Clec4b2 (P20411 19-86 partner): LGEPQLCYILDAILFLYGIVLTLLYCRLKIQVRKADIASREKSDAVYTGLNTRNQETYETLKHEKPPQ
# Description: To determine whether the lead hu24F4 H4/L1 C95A mAb was capable of binding to surface rat Clec4b2, 293E cells were transiently co-transfected with an EGFP reporter expression vector (pEAG1458) and either human BDCA2/FcεRIγ vectors (pEAG2420 and pEAG2413) or rat Clec4b2/FcεRIγ vectors (pCN834 and pCN844) at 1:1:1 molar ratios. At 3 days post-transfection cells were harvested and stained with the lead hu24F4 H4/L1 C95A mAb in a dilution titration direct FACS binding assay, gating on live EGFP-positive cells.
# [1] = test system: human and cynomolgus BDCA2 ECD; test: Octet binding of BIIB059 to BDCA2 ECD; set-up: species or system cynomolgus monkey; conditions: BIIB059 on anti-human Fc tips, ECD 2 μg/mL, 5 mM CaCl2
# Description: For the association step, human and cynomolgus BDCA2 ECD was added at a concentration of 2 μg/mL. The buffer for this experiment was 50 mM HEPES, pH 7, 100 mM NaCl, 5 mM CaCl2, 1 mg/mL BSA, 0.02% Tween 20 and 0.001% azide.
# [2] = test system: type I IFN transcription in purified pDCs; test: Q-PCR of type I IFN genes in CpG-A stimulated purified pDCs; format: cell-based, human; conditions: 5 μM CPG-A, 18 hours
# Description: pDCs were purified using a two-step magnetic bead separation procedure (MACS kit, Miltenyi Biotec). […] Total assay volume was 200 μl/well. Plates were incubated for 18 hours at 37° C., and RNA was extracted from cells using Trizol reagent (Invitrogen corporation) and further purified using an RNeasy mini column (Qiagen Sciences). All primers and probes were purchased from Applied Biosystems Inc. Relative transcript quantities were determined for each sample by comparison to the oligonucleotide standard curve using Sequence Detection Software (Applied Biosystems Inc.) and normalized to a control (GAPDH).
# [3] = test system: type I IFN subtype transcription in pDCs; test: qPCR of type I IFN subtypes in Sm/RNP IC stimulated pDCs; format: cell-based, human; conditions: 10 μg/mL BIIB059, 16 hours
# Description: Sm/RNP immune complexes (IC) were pre-formed by mixing sm-RNP from calf thymus and anti-RNP antibodies purified from sera of SLE patients for 30 minutes in serum-free medium. pDCs from human healthy donors were isolated using a two-step magnetic bead separation procedure (MACS kit, Miltenyi Biotec). […] The plates containing pDC were incubated for 16 hours at 37° C. and 5% CO2. pDC cells were collected and RNA from pDC was isolated for evaluation in qPCR reaction.
# [4] = Example 5, conditioned medium, hu24F4 variants
# [5] = Example 6, conditioned medium, L1 position 95 variants
Substance,kdis (human BDCA2 ectodomain; [4]) [s⁻¹],kon (human BDCA2 ectodomain; [4]) [M⁻¹ s⁻¹],kdis (human BDCA2 ectodomain; [5]) [s⁻¹],kon (human BDCA2 ectodomain; [5]) [M⁻¹ s⁻¹],binding to surface rat Clec4b2 (surface rat Clec4b2),binding to human versus cyno BDCA2 ECD [1],transcription of type I IFNs [2],transcript level of type I IFN subtypes [3]
24F4S: hu24F4 H4/L1 with C95S light chain; differs from BIIB059 by 1 amino acid residue,0.000408,549000,0.000398,727000,,,,
"BIIB059: humanized IgG1 anti-BDCA2 antibody, mature heavy chain SEQ ID NO: 4 and mature light chain SEQ ID NO: 3",,,,,no binding to surface rat Clec4b2 was detected,comparable,inhibited transcription of all type I IFNs tested,inhibited the transcript level of all type I IFN subtypes tested
